Here are results for 28 molecules from patent publication US20120178701A1 (PALATIN TECHNOLOGIES, published 2012).

Numbered stars: 1 amine (or outer) side, 2 acyl side, 3 side chain; on linkers, the order of the positions; unused ones are H or OH. Bridge positions count the residues as written; N and C are the ends. Square brackets hold non-standard residues; d marks the D form. * marks the point of attachment. Hyp(Bzl) = O-benzyl-hydroxyproline, O=C([C@@H]1C[C@@H](OCc2ccccc2)CN1[*:1])[*:2]; Pro(4R-Bn) = O=C(O)[C@@H]1C[C@@H](Cc2ccccc2)CN1; Orn = NCCC[C@H](N)C(=O)O; NHcPr = C1CC1N*

The target in the assay is T1, human recombinant melanocortin-4 receptor (human, UniProt P32245 1-332).
T1 construct: whole, on cells; cAMP assays used the whole cells; also called hMC4-R; MC4-R
Description: competitive inhibition of Eu-NDP-α-MSH (TRF), hMC4-R HEK-293 membranes. On the procedure: After incubation for 90 minutes at 37° C., the reaction was stopped by filtration over AcroWell 96-well filter plates (Pall Life Sciences). The filter plates were washed 4 times with 200 μL of ice-cold phosphate-buffered saline. DELFIA Enhancement solution (PerkinElmer Life Sciences) was added to each well. The plates were incubated on a shaker for 15 minutes and read at 340 nm excitation and 615 nm emission wavelengths. Each assay was conducted in duplicate and mean values were utilized. Ki values were determined by curve-fitting with Graph-Pad Prism® software using a one-site fixed-slope competition binding model.
9.1 Peptides of the following structures were synthesized by the general methods described above, and averaged MC4-R Ki values for peptides were determined as indicated. […] Ki values marked “ND” were not determined.

T1 sequence (P32245 whole entry): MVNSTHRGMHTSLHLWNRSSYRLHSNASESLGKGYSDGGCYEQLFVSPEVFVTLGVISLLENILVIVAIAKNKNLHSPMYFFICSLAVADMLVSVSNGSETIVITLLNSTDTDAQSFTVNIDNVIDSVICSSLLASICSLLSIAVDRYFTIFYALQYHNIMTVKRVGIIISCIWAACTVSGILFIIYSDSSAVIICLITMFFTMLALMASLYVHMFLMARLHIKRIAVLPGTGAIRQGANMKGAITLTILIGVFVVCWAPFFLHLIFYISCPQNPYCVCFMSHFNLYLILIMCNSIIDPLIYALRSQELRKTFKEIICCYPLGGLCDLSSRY

For the molecule Ac-[dR]EH[dF]RW[Orn]-OH (lactam 2-7, also called peptide No. 85) [Ac-D-Arg-cyclo(Glu-His-D-Phe-Arg-Trp-Orn)-OH], the Ki (usually the dissociation constant of the complex between target and ligand, obtained from inhibition or displacement) was determined as 40 nM.

B1: Ac-Arg-cyclo(Orn-Ala-D-Phe-Arg-Trp-Glu)-NH2 (peptide)
peptide: RXAFRWE
HELM: PEPTIDE1{[ac].R.[Orn].A.[dF].R.W.E.[am]}$PEPTIDE1,PEPTIDE1,3:R3-8:R3$$$V2.0
SMILES: CC(=O)N[C@@H](CCCNC(=N)N)C(=O)N[C@H]1CCCNC(=O)CC[C@@H](C(N)=O)NC(=O)[C@H](Cc2c[nH]c3ccccc23)NC(=O)[C@H](CCCNC(=N)N)NC(=O)[C@@H](Cc2ccccc2)NC(=O)[C@H](C)NC1=O
notes: also called peptide No. 120
Consider B1, for which the Ki amounted to 19 nM.

In the case of Ac-[dK][Orn]H[dF]RWE-NH2 (lactam 2-7) [Ac-D-Lys-cyclo(Orn-His-D-Phe-Arg-Trp-Glu)-NH2], the inhibition constant (Ki) was found to be 8 nM.

Turning to Ac-K[Orn]H[dF]RWE-NH2 (lactam 2-7, also called peptide No. 132) [Ac-Lys-cyclo(Orn-His-D-Phe-Arg-Trp-Glu)-NH2], the Ki came out at 3 nM.

Take Ac-RD[Hyp(Bzl)][dF]RWK-NH2 (lactam 2-7, also called peptide No. 15) [Ac-Arg-cyclo(Asp-Hyp(Bzl)-D-Phe-Arg-Trp-Lys)-NH2]: the inhibitory constant (Ki) came to 0.7 nM.

B2: Ac-Arg-cyclo(Asp-Tyr-D-Phe-Arg-Trp-Lys)-NH2 (peptide)
peptide: RDYFRWK
HELM: PEPTIDE1{[ac].R.D.Y.[dF].R.W.K.[am]}$PEPTIDE1,PEPTIDE1,3:R3-8:R3$$$V2.0
SMILES: CC(=O)N[C@@H](CCCNC(=N)N)C(=O)N[C@H]1CC(=O)NCCCC[C@@H](C(N)=O)NC(=O)[C@H](Cc2c[nH]c3ccccc23)NC(=O)[C@H](CCCNC(=N)N)NC(=O)[C@@H](Cc2ccccc2)NC(=O)[C@H](Cc2ccc(O)cc2)NC1=O
notes: also called peptide No. 11
On to B2, for which the inhibitory constant (Ki) was 43 nM.

B3: Ac-Arg-cyclo(Asp-Lys-D-Phe-Lys-Trp-Lys)-NH2 (peptide)
peptide: RDKFKWK
HELM: PEPTIDE1{[ac].R.D.K.[dF].K.W.K.[am]}$PEPTIDE1,PEPTIDE1,3:R3-8:R3$$$V2.0
SMILES: CC(=O)N[C@@H](CCCNC(=N)N)C(=O)N[C@H]1CC(=O)NCCCC[C@@H](C(N)=O)NC(=O)[C@H](Cc2c[nH]c3ccccc23)NC(=O)[C@H](CCCCN)NC(=O)[C@@H](Cc2ccccc2)NC(=O)[C@H](CCCCN)NC1=O
notes: also called peptide No. 7
B3: the inhibition constant (Ki) amounted to 2960 nM.

As to Ac-RDT[dF]RWK-NH2 (lactam 2-7, also called peptide No. 35) [Ac-Arg-cyclo(Asp-Thr-D-Phe-Arg-Trp-Lys)-NH2], the Ki came to 140 nM.

B4: Ac-Arg-cyclo(Asp-Gln-D-Phe-Arg-Trp-Lys)-NH2 (peptide)
peptide: Ac-RDQ[dF]RWK-NH2
modifications: lactam 2-7
notes: any difference is only in the drawings; also called peptide No. 78
With B4, the Ki amounted to 86 nM.

In the case of Ac-RDQ[dF]RWK-NHcPr (lactam 2-7) [Ac-Arg-cyclo(Asp-Gln-D-Phe-Arg-Trp-Lys)-NH-cyclopropyl], the Ki amounted to 64 nM.

B5: Ac-Arg-cyclo(Asp-His-D-Phe-Lys-Trp-Lys)-NH2 (peptide)
peptide: RDHFKWK
HELM: PEPTIDE1{[ac].R.D.H.[dF].K.W.K.[am]}$PEPTIDE1,PEPTIDE1,3:R3-8:R3$$$V2.0
SMILES: CC(=O)N[C@@H](CCCNC(=N)N)C(=O)N[C@H]1CC(=O)NCCCC[C@@H](C(N)=O)NC(=O)[C@H](Cc2c[nH]c3ccccc23)NC(=O)[C@H](CCCCN)NC(=O)[C@@H](Cc2ccccc2)NC(=O)[C@H](Cc2c[nH]cn2)NC1=O
notes: also called peptide No. 6
B5: the inhibition constant Ki was determined as 533 nM.

B6: Ac-Arg-cyclo(Asp-His-D-(alpha-Me)Phe-Arg-Trp-Lys)-NH2 (peptide)
peptide: RDHFRWK
HELM: PEPTIDE1{[ac].R.D.H.[C[C@](Cc1ccccc1)(N[*:1])C(=O)[*:2]].R.W.K.[am]}$PEPTIDE1,PEPTIDE1,3:R3-8:R3$$$V2.0
SMILES: CC(=O)N[C@@H](CCCNC(=N)N)C(=O)N[C@H]1CC(=O)NCCCC[C@@H](C(N)=O)NC(=O)[C@H](Cc2c[nH]c3ccccc23)NC(=O)[C@H](CCCNC(=N)N)NC(=O)[C@@](C)(Cc2ccccc2)NC(=O)[C@H](Cc2c[nH]cn2)NC1=O
notes: also called peptide No. 60
B6: the Ki was found to be 47 nM.

B7: Ac-Arg-cyclo(Asp-Ala-D-Phe-Lys-Trp-Lys)-NH2 (peptide)
peptide: RDAFKWK
HELM: PEPTIDE1{[ac].R.D.A.[dF].K.W.K.[am]}$PEPTIDE1,PEPTIDE1,3:R3-8:R3$$$V2.0
SMILES: CC(=O)N[C@@H](CCCNC(=N)N)C(=O)N[C@H]1CC(=O)NCCCC[C@@H](C(N)=O)NC(=O)[C@H](Cc2c[nH]c3ccccc23)NC(=O)[C@H](CCCCN)NC(=O)[C@@H](Cc2ccccc2)NC(=O)[C@H](C)NC1=O
notes: also called peptide No. 8
B7: the Ki was determined as 3020 nM.

B8: Ac-Lys-cyclo(Asp-His-D-Phe-Arg-Trp-Lys)-NH2 (peptide)
peptide: KDHFRWK
HELM: PEPTIDE1{[ac].K.D.H.[dF].R.W.K.[am]}$PEPTIDE1,PEPTIDE1,3:R3-8:R3$$$V2.0
SMILES: CC(=O)N[C@@H](CCCCN)C(=O)N[C@H]1CC(=O)NCCCC[C@@H](C(N)=O)NC(=O)[C@H](Cc2c[nH]c3ccccc23)NC(=O)[C@H](CCCNC(=N)N)NC(=O)[C@@H](Cc2ccccc2)NC(=O)[C@H](Cc2c[nH]cn2)NC1=O
notes: also called peptide No. 135
B8: the Ki was determined as 9 nM.

B9: Ac-Arg-cyclo(Asp-Trp-D-Phe-Arg-Trp-Lys)-NH2 (peptide)
peptide: RDWFRWK
HELM: PEPTIDE1{[ac].R.D.W.[dF].R.W.K.[am]}$PEPTIDE1,PEPTIDE1,3:R3-8:R3$$$V2.0
SMILES: CC(=O)N[C@@H](CCCNC(=N)N)C(=O)N[C@H]1CC(=O)NCCCC[C@@H](C(N)=O)NC(=O)[C@H](Cc2c[nH]c3ccccc23)NC(=O)[C@H](CCCNC(=N)N)NC(=O)[C@@H](Cc2ccccc2)NC(=O)[C@H](Cc2c[nH]c3ccccc23)NC1=O
notes: also called peptide No. 36
Take B9: the Ki was found to be 37 nM.

B10: Ac-Arg-cyclo(Asp-Met-D-Phe-Arg-Trp-Lys)-NH2 (peptide)
peptide: RDMFRWK
HELM: PEPTIDE1{[ac].R.D.M.[dF].R.W.K.[am]}$PEPTIDE1,PEPTIDE1,3:R3-8:R3$$$V2.0
SMILES: CSCC[C@@H]1NC(=O)[C@@H](NC(=O)[C@H](CCCNC(=N)N)NC(C)=O)CC(=O)NCCCC[C@@H](C(N)=O)NC(=O)[C@H](Cc2c[nH]c3ccccc23)NC(=O)[C@H](CCCNC(=N)N)NC(=O)[C@@H](Cc2ccccc2)NC1=O
notes: also called peptide No. 38
In the case of B10, the Ki worked out at 35 nM.

B11: Ac-Arg-cyclo(Asp-Ala-D-Phe-Arg-Trp-Lys)-OH (peptide)
peptide: RDAFRWK
HELM: PEPTIDE1{[ac].R.D.A.[dF].R.W.K}$PEPTIDE1,PEPTIDE1,3:R3-8:R3$$$V2.0
SMILES: CC(=O)N[C@@H](CCCNC(=N)N)C(=O)N[C@H]1CC(=O)NCCCC[C@@H](C(=O)O)NC(=O)[C@H](Cc2c[nH]c3ccccc23)NC(=O)[C@H](CCCNC(=N)N)NC(=O)[C@@H](Cc2ccccc2)NC(=O)[C@H](C)NC1=O
notes: also called peptide No. 52
Regarding B11, the inhibition constant (Ki) is 144 nM.

For Ac-RDA[dF]RWK-NH2 (lactam 2-7, also called peptide No. 9) [Ac-Arg-cyclo(Asp-Ala-D-Phe-Arg-Trp-Lys)-NH2], the Ki worked out at 19 nM.

B12: Ac-Arg-cyclo(Asp-Asn-D-Phe-Arg-Trp-Lys)-NH2 (peptide)
peptide: RDNFRWK
HELM: PEPTIDE1{[ac].R.D.N.[dF].R.W.K.[am]}$PEPTIDE1,PEPTIDE1,3:R3-8:R3$$$V2.0
SMILES: CC(=O)N[C@@H](CCCNC(=N)N)C(=O)N[C@H]1CC(=O)NCCCC[C@@H](C(N)=O)NC(=O)[C@H](Cc2c[nH]c3ccccc23)NC(=O)[C@H](CCCNC(=N)N)NC(=O)[C@@H](Cc2ccccc2)NC(=O)[C@H](CC(N)=O)NC1=O
notes: also called peptide No. 29
As for B12, the inhibitory constant (Ki) worked out at 32 nM.

B13: Ac-Arg-cyclo(Asp-Ile-D-Phe-Arg-Trp-Lys)-NH2 (peptide)
peptide: RDIFRWK
HELM: PEPTIDE1{[ac].R.D.I.[dF].R.W.K.[am]}$PEPTIDE1,PEPTIDE1,3:R3-8:R3$$$V2.0
SMILES: CC[C@H](C)[C@@H]1NC(=O)[C@@H](NC(=O)[C@H](CCCNC(=N)N)NC(C)=O)CC(=O)NCCCC[C@@H](C(N)=O)NC(=O)[C@H](Cc2c[nH]c3ccccc23)NC(=O)[C@H](CCCNC(=N)N)NC(=O)[C@@H](Cc2ccccc2)NC1=O
notes: also called peptide No. 34
Take B13: the Ki is 19 nM.

B14: Ac-Arg-cyclo(Asp-Leu-D-Phe-Arg-Trp-Lys)-NH2 (peptide)
peptide: RDLFRWK
HELM: PEPTIDE1{[ac].R.D.L.[dF].R.W.K.[am]}$PEPTIDE1,PEPTIDE1,3:R3-8:R3$$$V2.0
SMILES: CC(=O)N[C@@H](CCCNC(=N)N)C(=O)N[C@H]1CC(=O)NCCCC[C@@H](C(N)=O)NC(=O)[C@H](Cc2c[nH]c3ccccc23)NC(=O)[C@H](CCCNC(=N)N)NC(=O)[C@@H](Cc2ccccc2)NC(=O)[C@H](CC(C)C)NC1=O
notes: also called peptide No. 12
For the molecule B14, the Ki was 33 nM.

As for Ac-[dR]DA[dF]RWK-NH2 (lactam 2-7, also called peptide No. 70) [Ac-D-Arg-cyclo(Asp-Ala-D-Phe-Arg-Trp-Lys)-NH2], the Ki turned out to be 46 nM.

Ac-RD[Pro(4R-Bn)][dF]RWK-NH2 (lactam 2-7, also called peptide No. 18) [Ac-Arg-cyclo(Asp-Pro(4R-Bzl)-D-Phe-Arg-Trp-Lys)-NH2]: the Ki came out at 3 nM.

For Ac-RKH[dF]RWD-NH2 (lactam 2-7, also called peptide No. 96) [Ac-Arg-cyclo(Lys-His-D-Phe-Arg-Trp-Asp)-NH2], the Ki turned out to be 1 nM.

Turning to Ac-R[Orn]H[dF]RWE-OH (lactam 2-7, also called peptide No. 84) [Ac-Arg-cyclo(Orn-His-D-Phe-Arg-Trp-Glu)-OH], the Ki is 12 nM.

Consider Ac-REH[dF]RW[Orn]-NH2 (lactam 2-7, also called peptide No. 64) [Ac-Arg-cyclo(Glu-His-D-Phe-Arg-Trp-Orn)-NH2], for which the inhibition constant Ki was 1 nM.

B15: Ac-Arg-cyclo(Glu-Lys-D-Phe-Arg-Trp-Orn)-OH (peptide)
peptide: REKFRWX
HELM: PEPTIDE1{[ac].R.E.K.[dF].R.W.[Orn]}$PEPTIDE1,PEPTIDE1,3:R3-8:R3$$$V2.0
SMILES: CC(=O)N[C@@H](CCCNC(=N)N)C(=O)N[C@H]1CCC(=O)NCCC[C@@H](C(=O)O)NC(=O)[C@H](Cc2c[nH]c3ccccc23)NC(=O)[C@H](CCCNC(=N)N)NC(=O)[C@@H](Cc2ccccc2)NC(=O)[C@H](CCCCN)NC1=O
notes: also called peptide No. 89
As to B15, the Ki is 113 nM.

As to Ac-[dR]D[Pro(4R-Bn)][dF]RWK-NH2 (lactam 2-7, also called peptide No. 72) [Ac-D-Arg-cyclo(Asp-Pro(4R-Bzl)-D-Phe-Arg-Trp-Lys)-NH2], the Ki was found to be 2 nM.
